Assay [1] addresses integrin αvβ8 on β8-expressing HT1080 cells (wild-type β8) (human (endogenous in HT1080) | human) (UniProt P06756). Kind of assay: flow cytometry on cells. In general terms: Flow cytometry measures light scatter and fluorescence of single cells or particles in a stream.
The target in assay [2] is T1, integrin αvβ8 (construct of the affinity and cross-competition measurements, not told) (Homo sapiens, UniProt P06756;P26012). Briefly: flow cytometry on cells.
In assay [3] the target is T1, integrin αvβ8 (construct of the …).

Like-named read-outs stand apart in the source and are kept apart here.

T1 sequence (P06756 31-1048, chain 1 of 2): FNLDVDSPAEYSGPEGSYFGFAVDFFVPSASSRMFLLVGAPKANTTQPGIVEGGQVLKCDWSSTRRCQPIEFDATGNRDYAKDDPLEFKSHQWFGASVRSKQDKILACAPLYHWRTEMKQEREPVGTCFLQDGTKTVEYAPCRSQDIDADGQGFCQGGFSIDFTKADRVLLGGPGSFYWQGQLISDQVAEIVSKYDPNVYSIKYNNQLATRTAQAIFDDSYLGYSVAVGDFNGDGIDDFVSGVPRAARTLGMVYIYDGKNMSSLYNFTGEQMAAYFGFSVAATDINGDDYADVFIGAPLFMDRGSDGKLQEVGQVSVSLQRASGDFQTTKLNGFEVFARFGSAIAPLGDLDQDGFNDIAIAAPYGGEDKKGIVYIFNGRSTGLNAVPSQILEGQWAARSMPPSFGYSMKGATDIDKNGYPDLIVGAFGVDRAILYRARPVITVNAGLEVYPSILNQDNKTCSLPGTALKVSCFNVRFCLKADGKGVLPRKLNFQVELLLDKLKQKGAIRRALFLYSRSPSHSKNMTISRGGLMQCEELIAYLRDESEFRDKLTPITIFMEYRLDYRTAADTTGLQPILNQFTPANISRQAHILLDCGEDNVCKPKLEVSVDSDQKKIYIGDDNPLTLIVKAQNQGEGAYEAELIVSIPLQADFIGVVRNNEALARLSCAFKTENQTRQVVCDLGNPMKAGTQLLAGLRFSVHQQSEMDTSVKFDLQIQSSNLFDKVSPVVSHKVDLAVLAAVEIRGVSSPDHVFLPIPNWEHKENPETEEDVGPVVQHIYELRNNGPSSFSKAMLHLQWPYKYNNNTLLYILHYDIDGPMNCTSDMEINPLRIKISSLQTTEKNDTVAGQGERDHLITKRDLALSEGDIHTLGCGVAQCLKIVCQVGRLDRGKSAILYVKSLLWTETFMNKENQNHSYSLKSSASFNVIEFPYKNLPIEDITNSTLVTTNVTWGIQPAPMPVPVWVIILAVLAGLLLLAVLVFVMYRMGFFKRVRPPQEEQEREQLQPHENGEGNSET
T1 sequence (P26012 43-769, chain 2 of 2): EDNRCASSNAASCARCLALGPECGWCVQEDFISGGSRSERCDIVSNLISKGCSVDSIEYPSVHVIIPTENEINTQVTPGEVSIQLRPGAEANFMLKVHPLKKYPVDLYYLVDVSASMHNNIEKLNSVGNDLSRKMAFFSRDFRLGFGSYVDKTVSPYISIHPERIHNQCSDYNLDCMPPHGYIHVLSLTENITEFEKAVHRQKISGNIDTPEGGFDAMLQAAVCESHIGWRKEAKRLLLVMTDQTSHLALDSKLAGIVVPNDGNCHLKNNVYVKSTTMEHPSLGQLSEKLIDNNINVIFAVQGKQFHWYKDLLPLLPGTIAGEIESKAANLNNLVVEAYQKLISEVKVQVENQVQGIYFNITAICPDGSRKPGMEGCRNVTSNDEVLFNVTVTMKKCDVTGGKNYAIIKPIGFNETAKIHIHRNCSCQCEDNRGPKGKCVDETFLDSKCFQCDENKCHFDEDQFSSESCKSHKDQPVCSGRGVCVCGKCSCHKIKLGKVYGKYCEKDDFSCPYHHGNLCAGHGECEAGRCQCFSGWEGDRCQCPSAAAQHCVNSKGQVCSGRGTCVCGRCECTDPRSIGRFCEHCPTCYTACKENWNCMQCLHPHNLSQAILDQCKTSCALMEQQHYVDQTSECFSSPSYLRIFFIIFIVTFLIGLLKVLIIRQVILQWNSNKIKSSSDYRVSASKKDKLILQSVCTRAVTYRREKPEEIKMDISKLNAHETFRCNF
integrin αvβ8 on β8-expressing HT1080 cells (wild-type β8) (human (endogenous in HT1080) | human), sequence (P06756 31-1048, chain 1 of 2): as the sequence (P06756 31-1048, chain 1 of 2) above
integrin αvβ8 on β8-expressing HT1080 cells (wild-type β8) (human (endogenous in HT1080) | human), sequence (P26012 43-769, chain 2 of 2, further chain): as the sequence (P26012 43-769, chain 2 of 2) above

In turn, “latency-associated peptide (from UniProt P01137 30-278) (ligand)” displayed a percent decrease of B5 binding to β8-expressing HT1080 cells in assay [1] of 29%.

B1: 37E1 single-chain antibody fragment (scFv) on yeast (scFv, V domains shown)
VH: EVQLVESGGGLVQPGGSLNLSCAASGFVFSRYWMSWVRQAPGKGLEWIGEINPDSSTINYTSSLKDKFIISRDNAKNTLYLQMNKVRSEDTALYYCACLITTEDYWGQGTSVTVSS
VL: QIVLTQSPSSMYASLGERVTIPCKASQDINSYLSWFQQKPGKSPKTLIYRANRLVDGVPSRFSGSGSGQDYSLTISSLEYEDMGIYYCLQYDEFPYTFGGGTKLEIK
B1: the Kd – broadly, a measure of binding affinity in units of concentration – in assay [2] was determined as 118 nM.

B2: B5 intact IgG (antibody, V domains shown)
VH: EVQLVESGGGLVQPGGSLNLSCAVSGFVFSRYWMSWVRQAPGKGLEWIGEINPDSSTINYTSSLKDKFIISRDNAKNTLYLQMNKVRSEDTALYYCACLITTEDYWGQGTSVTVSS
VL: QIVLTQSPSSMYASLGERVTIPCKASQDINSYLSWFQQKPGKSPKTLIYYANRLVDGVPSRFSGSGSGQDYSLTISSLEYEDMGIYYCLQYDEFPYTFGGGTKLEIK
As to B2, binding in assay [3] was put at a Kd of 0.54 nM.

B3: B5 single-chain antibody fragment (scFv) on yeast (scFv, V domains shown)
VH: EVQLVESGGGLVQPGGSLNLSCAVSGFVFSRYWMSWVRQAPGKGLEWIGEINPDSSTINYTSSLKDKFIISRDNAKNTLYLQMNKVRSEDTALYYCACLITTEDYWGQGTSVTVSS
VL: QIVLTQSPSSMYASLGERVTIPCKASQDINSYLSWFQQKPGKSPKTLIYYANRLVDGVPSRFSGSGSGQDYSLTISSLEYEDMGIYYCLQYDEFPYTFGGGTKLEIK
As to B3, the affinity in assay [2], expressed as Kd, was 15.4 nM.

The values above are taken from paper PMC4341974 (Science translational medicine, 2014).
